# Test results reported in publication PMC3749527.
# Biological target: Respiratory syncytial virus nucleoprotein N, R234A mutant (human respiratory syncytial virus) (UniProt P03418)
substance,measurement,value
"Respiratory syncytial virus nucleoprotein N, R234A mutant (from UniProt P03418 1-391) (natural protein)","polymerase activity (viral RNA synthesis) in an HRSV plasmid-based minigenome luciferase assay in BSRT7/5 cells, compared to wt N",68 % of wt N
